# Experimental data as given in US20180155451A1 (published 2018).
# Target: T1, FcγRIa (human, UniProt P12314 16-292)
# T1 construct: extracellular domain; also called FcgRI; CD64
# Experiment: SPR; vs GpH7-A5/GpH7-B3/GpL16-k0=100
# T1 sequence (P12314 16-292): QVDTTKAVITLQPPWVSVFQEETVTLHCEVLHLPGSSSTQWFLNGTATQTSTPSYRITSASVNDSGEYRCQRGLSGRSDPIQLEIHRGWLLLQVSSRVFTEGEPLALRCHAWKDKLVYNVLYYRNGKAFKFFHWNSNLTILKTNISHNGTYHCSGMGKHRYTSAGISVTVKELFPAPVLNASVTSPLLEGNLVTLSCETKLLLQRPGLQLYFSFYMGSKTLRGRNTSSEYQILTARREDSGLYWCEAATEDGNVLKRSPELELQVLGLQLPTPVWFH
row,He/Con_1a,Binder
1,105 % of control,"GpH7-A5/GpH7-B3 variant E269_19Q/GpL16-k0 (antibody, human IgG1, kappa, heterodimerized; also called He Ab E269_19Q) heavy 1: not shown heavy 2: not shown light: DIVMTQSPLSLPVTPGEPASISCQASESLVHSNRNTYLHWYLQKPGQSPQLLIYKVSNRFSGVPDRFSGSGSGTDFTLKISRVEAEDVGVYYCSQNTHVPPTFGQGTKVEIERTVAAPSVFIFPPSDEQLKSGTASVVCLLNNFYPREAKVQWKVDNALQSGNSQESVTEQDSKDSTYSLSSTLTLSKADYEKHKVYACEVTHQGLSSPVTKSFNRGEC"
2,106 % of control,"GpH7-A5/GpH7-B3 variant E269_16H/GpL16-k0 (antibody, human IgG1, kappa, heterodimerized; also called He Ab E269_16H) heavy 1: not shown heavy 2: not shown light: DIVMTQSPLSLPVTPGEPASISCQASESLVHSNRNTYLHWYLQKPGQSPQLLIYKVSNRFSGVPDRFSGSGSGTDFTLKISRVEAEDVGVYYCSQNTHVPPTFGQGTKVEIERTVAAPSVFIFPPSDEQLKSGTASVVCLLNNFYPREAKVQWKVDNALQSGNSQESVTEQDSKDSTYSLSSTLTLSKADYEKHKVYACEVTHQGLSSPVTKSFNRGEC"
3,104 % of control,"GpH7-A5/GpH7-B3 variant E269_06M/GpL16-k0 (antibody, human IgG1, kappa, heterodimerized; also called He Ab E269_06M) heavy 1: not shown heavy 2: not shown light: DIVMTQSPLSLPVTPGEPASISCQASESLVHSNRNTYLHWYLQKPGQSPQLLIYKVSNRFSGVPDRFSGSGSGTDFTLKISRVEAEDVGVYYCSQNTHVPPTFGQGTKVEIERTVAAPSVFIFPPSDEQLKSGTASVVCLLNNFYPREAKVQWKVDNALQSGNSQESVTEQDSKDSTYSLSSTLTLSKADYEKHKVYACEVTHQGLSSPVTKSFNRGEC"
4,102 % of control,"GpH7-A5/GpH7-B3 variant E333_05P/GpL16-k0 (antibody, human IgG1, kappa, heterodimerized; also called He Ab E333_05P) heavy 1: not shown heavy 2: not shown light: DIVMTQSPLSLPVTPGEPASISCQASESLVHSNRNTYLHWYLQKPGQSPQLLIYKVSNRFSGVPDRFSGSGSGTDFTLKISRVEAEDVGVYYCSQNTHVPPTFGQGTKVEIERTVAAPSVFIFPPSDEQLKSGTASVVCLLNNFYPREAKVQWKVDNALQSGNSQESVTEQDSKDSTYSLSSTLTLSKADYEKHKVYACEVTHQGLSSPVTKSFNRGEC"
5,105 % of control,"GpH7-A5/GpH7-B3 variant E269_20W/GpL16-k0 (antibody, human IgG1, kappa, heterodimerized; also called He Ab E269_20W) heavy 1: not shown heavy 2: not shown light: DIVMTQSPLSLPVTPGEPASISCQASESLVHSNRNTYLHWYLQKPGQSPQLLIYKVSNRFSGVPDRFSGSGSGTDFTLKISRVEAEDVGVYYCSQNTHVPPTFGQGTKVEIERTVAAPSVFIFPPSDEQLKSGTASVVCLLNNFYPREAKVQWKVDNALQSGNSQESVTEQDSKDSTYSLSSTLTLSKADYEKHKVYACEVTHQGLSSPVTKSFNRGEC"
6,103 % of control,"GpH7-A5/GpH7-B3 variant E269_13S/GpL16-k0 (antibody, human IgG1, kappa, heterodimerized; also called He Ab E269_13S) heavy 1: not shown heavy 2: not shown light: DIVMTQSPLSLPVTPGEPASISCQASESLVHSNRNTYLHWYLQKPGQSPQLLIYKVSNRFSGVPDRFSGSGSGTDFTLKISRVEAEDVGVYYCSQNTHVPPTFGQGTKVEIERTVAAPSVFIFPPSDEQLKSGTASVVCLLNNFYPREAKVQWKVDNALQSGNSQESVTEQDSKDSTYSLSSTLTLSKADYEKHKVYACEVTHQGLSSPVTKSFNRGEC"
7,103 % of control,"GpH7-A5/GpH7-B3 variant E269_07I/GpL16-k0 (antibody, human IgG1, kappa, heterodimerized; also called He Ab E269_07I) heavy 1: not shown heavy 2: not shown light: DIVMTQSPLSLPVTPGEPASISCQASESLVHSNRNTYLHWYLQKPGQSPQLLIYKVSNRFSGVPDRFSGSGSGTDFTLKISRVEAEDVGVYYCSQNTHVPPTFGQGTKVEIERTVAAPSVFIFPPSDEQLKSGTASVVCLLNNFYPREAKVQWKVDNALQSGNSQESVTEQDSKDSTYSLSSTLTLSKADYEKHKVYACEVTHQGLSSPVTKSFNRGEC"
8,106 % of control,"GpH7-A5/GpH7-B3 variant E269_15Y/GpL16-k0 (antibody, human IgG1, kappa, heterodimerized; also called He Ab E269_15Y) heavy 1: not shown heavy 2: not shown light: DIVMTQSPLSLPVTPGEPASISCQASESLVHSNRNTYLHWYLQKPGQSPQLLIYKVSNRFSGVPDRFSGSGSGTDFTLKISRVEAEDVGVYYCSQNTHVPPTFGQGTKVEIERTVAAPSVFIFPPSDEQLKSGTASVVCLLNNFYPREAKVQWKVDNALQSGNSQESVTEQDSKDSTYSLSSTLTLSKADYEKHKVYACEVTHQGLSSPVTKSFNRGEC"
9,103 % of control,"GpH7-A5/GpH7-B3 variant E333_01G/GpL16-k0 (antibody, human IgG1, kappa, heterodimerized; also called He Ab E333_01G) heavy 1: not shown heavy 2: not shown light: DIVMTQSPLSLPVTPGEPASISCQASESLVHSNRNTYLHWYLQKPGQSPQLLIYKVSNRFSGVPDRFSGSGSGTDFTLKISRVEAEDVGVYYCSQNTHVPPTFGQGTKVEIERTVAAPSVFIFPPSDEQLKSGTASVVCLLNNFYPREAKVQWKVDNALQSGNSQESVTEQDSKDSTYSLSSTLTLSKADYEKHKVYACEVTHQGLSSPVTKSFNRGEC"
10,103 % of control,"GpH7-A5/GpH7-B3 variant E333_02A/GpL16-k0 (antibody, human IgG1, kappa, heterodimerized; also called He Ab E333_02A) heavy 1: not shown heavy 2: not shown light: DIVMTQSPLSLPVTPGEPASISCQASESLVHSNRNTYLHWYLQKPGQSPQLLIYKVSNRFSGVPDRFSGSGSGTDFTLKISRVEAEDVGVYYCSQNTHVPPTFGQGTKVEIERTVAAPSVFIFPPSDEQLKSGTASVVCLLNNFYPREAKVQWKVDNALQSGNSQESVTEQDSKDSTYSLSSTLTLSKADYEKHKVYACEVTHQGLSSPVTKSFNRGEC"

# Further lines, the binder ahead of its results:
row,Binder,He/Con_1a
1,"GpH7-A5/GpH7-B3 variant E269_05P/GpL16-k0 (antibody, human IgG1, kappa, heterodimerized; also called He Ab E269_05P) heavy 1: not shown heavy 2: not shown light: DIVMTQSPLSLPVTPGEPASISCQASESLVHSNRNTYLHWYLQKPGQSPQLLIYKVSNRFSGVPDRFSGSGSGTDFTLKISRVEAEDVGVYYCSQNTHVPPTFGQGTKVEIERTVAAPSVFIFPPSDEQLKSGTASVVCLLNNFYPREAKVQWKVDNALQSGNSQESVTEQDSKDSTYSLSSTLTLSKADYEKHKVYACEVTHQGLSSPVTKSFNRGEC",102 % of control
2,"GpH7-A5/GpH7-B3 variant E333_08L/GpL16-k0 (antibody, human IgG1, kappa, heterodimerized; also called He Ab E333_08L) heavy 1: not shown heavy 2: not shown light: DIVMTQSPLSLPVTPGEPASISCQASESLVHSNRNTYLHWYLQKPGQSPQLLIYKVSNRFSGVPDRFSGSGSGTDFTLKISRVEAEDVGVYYCSQNTHVPPTFGQGTKVEIERTVAAPSVFIFPPSDEQLKSGTASVVCLLNNFYPREAKVQWKVDNALQSGNSQESVTEQDSKDSTYSLSSTLTLSKADYEKHKVYACEVTHQGLSSPVTKSFNRGEC",102 % of control
3,"GpH7-A5/GpH7-B3 variant E333_03V/GpL16-k0 (antibody, human IgG1, kappa, heterodimerized; also called He Ab E333_03V) heavy 1: not shown heavy 2: not shown light: DIVMTQSPLSLPVTPGEPASISCQASESLVHSNRNTYLHWYLQKPGQSPQLLIYKVSNRFSGVPDRFSGSGSGTDFTLKISRVEAEDVGVYYCSQNTHVPPTFGQGTKVEIERTVAAPSVFIFPPSDEQLKSGTASVVCLLNNFYPREAKVQWKVDNALQSGNSQESVTEQDSKDSTYSLSSTLTLSKADYEKHKVYACEVTHQGLSSPVTKSFNRGEC",105 % of control
4,"GpH7-A5/GpH7-B3 variant E269_14T/GpL16-k0 (antibody, human IgG1, kappa, heterodimerized; also called He Ab E269_14T) heavy 1: not shown heavy 2: not shown light: DIVMTQSPLSLPVTPGEPASISCQASESLVHSNRNTYLHWYLQKPGQSPQLLIYKVSNRFSGVPDRFSGSGSGTDFTLKISRVEAEDVGVYYCSQNTHVPPTFGQGTKVEIERTVAAPSVFIFPPSDEQLKSGTASVVCLLNNFYPREAKVQWKVDNALQSGNSQESVTEQDSKDSTYSLSSTLTLSKADYEKHKVYACEVTHQGLSSPVTKSFNRGEC",106 % of control
5,"GpH7-A5/GpH7-B3 variant E333_11K/GpL16-k0 (antibody, human IgG1, kappa, heterodimerized; also called He Ab E333_11K) heavy 1: not shown heavy 2: not shown light: DIVMTQSPLSLPVTPGEPASISCQASESLVHSNRNTYLHWYLQKPGQSPQLLIYKVSNRFSGVPDRFSGSGSGTDFTLKISRVEAEDVGVYYCSQNTHVPPTFGQGTKVEIERTVAAPSVFIFPPSDEQLKSGTASVVCLLNNFYPREAKVQWKVDNALQSGNSQESVTEQDSKDSTYSLSSTLTLSKADYEKHKVYACEVTHQGLSSPVTKSFNRGEC",102 % of control
6,"GpH7-A5/GpH7-B3 variant E333_09D/GpL16-k0 (antibody, human IgG1, kappa, heterodimerized; also called He Ab E333_09D) heavy 1: not shown heavy 2: not shown light: DIVMTQSPLSLPVTPGEPASISCQASESLVHSNRNTYLHWYLQKPGQSPQLLIYKVSNRFSGVPDRFSGSGSGTDFTLKISRVEAEDVGVYYCSQNTHVPPTFGQGTKVEIERTVAAPSVFIFPPSDEQLKSGTASVVCLLNNFYPREAKVQWKVDNALQSGNSQESVTEQDSKDSTYSLSSTLTLSKADYEKHKVYACEVTHQGLSSPVTKSFNRGEC",104 % of control
7,"GpH7-A5/GpH7-B3 variant E269_09D/GpL16-k0 (antibody, human IgG1, kappa, heterodimerized; also called He Ab E269_09D) heavy 1: not shown heavy 2: not shown light: DIVMTQSPLSLPVTPGEPASISCQASESLVHSNRNTYLHWYLQKPGQSPQLLIYKVSNRFSGVPDRFSGSGSGTDFTLKISRVEAEDVGVYYCSQNTHVPPTFGQGTKVEIERTVAAPSVFIFPPSDEQLKSGTASVVCLLNNFYPREAKVQWKVDNALQSGNSQESVTEQDSKDSTYSLSSTLTLSKADYEKHKVYACEVTHQGLSSPVTKSFNRGEC",107 % of control
8,"GpH7-A5/GpH7-B3 variant E333_04F/GpL16-k0 (antibody, human IgG1, kappa, heterodimerized; also called He Ab E333_04F) heavy 1: not shown heavy 2: not shown light: DIVMTQSPLSLPVTPGEPASISCQASESLVHSNRNTYLHWYLQKPGQSPQLLIYKVSNRFSGVPDRFSGSGSGTDFTLKISRVEAEDVGVYYCSQNTHVPPTFGQGTKVEIERTVAAPSVFIFPPSDEQLKSGTASVVCLLNNFYPREAKVQWKVDNALQSGNSQESVTEQDSKDSTYSLSSTLTLSKADYEKHKVYACEVTHQGLSSPVTKSFNRGEC",102 % of control
9,"GpH7-A5/GpH7-B3 variant E269_08L/GpL16-k0 (antibody, human IgG1, kappa, heterodimerized; also called He Ab E269_08L) heavy 1: not shown heavy 2: not shown light: DIVMTQSPLSLPVTPGEPASISCQASESLVHSNRNTYLHWYLQKPGQSPQLLIYKVSNRFSGVPDRFSGSGSGTDFTLKISRVEAEDVGVYYCSQNTHVPPTFGQGTKVEIERTVAAPSVFIFPPSDEQLKSGTASVVCLLNNFYPREAKVQWKVDNALQSGNSQESVTEQDSKDSTYSLSSTLTLSKADYEKHKVYACEVTHQGLSSPVTKSFNRGEC",104 % of control
10,"GpH7-A5/GpH7-B3 variant E333_07I/GpL16-k0 (antibody, human IgG1, kappa, heterodimerized; also called He Ab E333_07I) heavy 1: not shown heavy 2: not shown light: DIVMTQSPLSLPVTPGEPASISCQASESLVHSNRNTYLHWYLQKPGQSPQLLIYKVSNRFSGVPDRFSGSGSGTDFTLKISRVEAEDVGVYYCSQNTHVPPTFGQGTKVEIERTVAAPSVFIFPPSDEQLKSGTASVVCLLNNFYPREAKVQWKVDNALQSGNSQESVTEQDSKDSTYSLSSTLTLSKADYEKHKVYACEVTHQGLSSPVTKSFNRGEC",102 % of control
11,"GpH7-A5/GpH7-B3 variant E333_06M/GpL16-k0 (antibody, human IgG1, kappa, heterodimerized; also called He Ab E333_06M) heavy 1: not shown heavy 2: not shown light: DIVMTQSPLSLPVTPGEPASISCQASESLVHSNRNTYLHWYLQKPGQSPQLLIYKVSNRFSGVPDRFSGSGSGTDFTLKISRVEAEDVGVYYCSQNTHVPPTFGQGTKVEIERTVAAPSVFIFPPSDEQLKSGTASVVCLLNNFYPREAKVQWKVDNALQSGNSQESVTEQDSKDSTYSLSSTLTLSKADYEKHKVYACEVTHQGLSSPVTKSFNRGEC",102 % of control
12,"GpH7-A5/GpH7-B3 variant E269_18N/GpL16-k0 (antibody, human IgG1, kappa, heterodimerized; also called He Ab E269_18N) heavy 1: not shown heavy 2: not shown light: DIVMTQSPLSLPVTPGEPASISCQASESLVHSNRNTYLHWYLQKPGQSPQLLIYKVSNRFSGVPDRFSGSGSGTDFTLKISRVEAEDVGVYYCSQNTHVPPTFGQGTKVEIERTVAAPSVFIFPPSDEQLKSGTASVVCLLNNFYPREAKVQWKVDNALQSGNSQESVTEQDSKDSTYSLSSTLTLSKADYEKHKVYACEVTHQGLSSPVTKSFNRGEC",102 % of control
